Test results as given in patent US20050069542A1 (Human Genome Sciences, published 2005).

T1: flag-tagged soluble TL3 (amino acids 105-251 of SEQ ID NO:234) (Homo sapiens (Human), UniProt O75888 105-250)
T1 construct: Heterologous flag-tagged control protein, immobilized in the ELISA; also called flagged tagged TL-3; not shown: Flag tag
T1 sequence: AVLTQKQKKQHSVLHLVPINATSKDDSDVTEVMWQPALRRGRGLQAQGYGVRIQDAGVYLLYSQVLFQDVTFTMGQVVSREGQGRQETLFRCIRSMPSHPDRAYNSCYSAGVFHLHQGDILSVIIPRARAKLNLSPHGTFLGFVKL

B1: GMCC108 (scFv)
scFv: EVQLVQSGAEVKEPGASVTVSCKASGYTFISYHMHWVRQAPGQGLEWMGIINPSGGDTTYAQKFQGRVTMTRDTSTSTVYMELRSLRFEDTARYYCARDLKFYDFRSGKYQDYGMDVWGQGTLVTVSSGGGGSGGGGSGGGGSAQSVLTQPPSLSVAPGQTASITCGGNDIGTKSVHWYQLKPGQAPVLVVYDNRDRPSGIPERFSGSNSGNTATLTISRVEGGDEADYYCQVWDSSIDHSEYVFGTGTKLTVLG
B2: GMBC683 (scFv)
scFv: EVQLVESGGGLVQPGRSLRLSCAASGFTFSSYGMHWVRQAPGKGLEWVAVISYDGSNKYYADSVKGRFTISRDNSKNTLYLQMNSLRAEDTAVYYCAKRAAAGTLDYWGQGTTVTVSSGGGGSGGGGSGGGGSSELTQDPAVSVALGQTVRITCQGDSLRSYYASWYQQKPGQAPVLVIYGKNNRPSGIPDRFSGSSSGNTASLTITGAQAEDEADYYCNSRDSSGNHVVFGGGTKLTVLG
B3: GMBC730 (scFv)
scFv: QVQLVESGGDSVKPGGSLRLSCAGSGFTFSDAWMNWVRQAPGKGLEWVGRMKSKGSGGTRDYAAPVNGRFTISRDDSKNTLYLQMNSLNTEDTGVYYCTWDWDFYYGMDVWGKGTTVTVSSGGGGSGGGGSGGGGSQSVLTQPASVSGSPGQSITISCTGTSSDVGGYNYVSWYQQHPGKAPKLMIYEGSKRPSGVSNRFSGSKSGNTASLTISGLQAEDEADYYCSSYTTRSTRVFGGGTKLTVLG
B4: GMCC107 (scFv)
scFv: QVQLVQSGAEVKKPGASVKVSCRTSGYTFTDHSMHWVRQAPGQRFEWMGWIGADSGSTQYSRNFQGRLTIGRDTSASTVYMELTSLRSEDTAVYYCARVGGGQGWYSGMDVWGRGTLVTVSSGGGGSGGGGSGGGGSAQAVLTQPSSVSGAPGQRVTISCTGSSSNIGASYDVHWYQQLPGTAPKLLIYNNNNRPSGVPDRFSGSRSGTSASLAITGLQAEDEADYYCHSYDSNLSGDVFGSGTKLTVLG
B5: GMBC689 (scFv)
scFv: QVQLVESGGGLVKPGGSLRLSCAASGFTFSDAWMNWVRQAPGKGLEWVGRIKSKGSGGTIDYAAPVKDRFTISRDDSKNTLYLQMNSLKTEDTALYYCTWDWDFYYGMNVWGQGTLVTVSSGGGGSGGGGSGGGGSQSVLTQPPSASGSPGQSVTISCTGTSSDVGGYNYVSWYQQHPGKAPKFMIYDVSKRPSGVSNRFSGSKSGNTASLTISGVQAEDEADYYCSSYTSASTVVFGGGTKLTVLG
B6: GMCC101 (scFv)
scFv: EVQLVQSGAEVKKPGSSVKVSCKASGGTFRTYAITWVRQAPGQGLEWMGGIIPISATANYAQKFQGRVTITADESMSTAYMELSSLRSEDTAVYYCARDREPHYFDNWGRGTMVTVSSGGGGSGGGGSGGGGSALPVLTQPPSVSEAPRQGVTISCSGSSSNIGNNAVSWYQQLPGQAPKLLIYYDDLLPSGVSDRFSASKSGTSASLAISGLQSEDEADYYCAAWDDSLNGVIFGGGTQLTVLS
B7: GMCC105 (scFv)
scFv: QVQLVQSGGGVVQPGRSLRLSCTASGFNLGSHGMHWVRQAPGKGLEWVAVIGFDGTTKYYVDSVKGRFTISRDNSRNTLSLQMNSLRAEDTAVYYCVREDYYYDSSGYYFDYWGRGTLVTVSSGGGGSGGGGSGGGGSALSSELTQDPFVSVALGQTVRIACRGDSLRDSYASWYQQKPGQAPRLLVYGNNLRPSGIPGRFSGSSSGDTASLSITETQAGDEADYYCSSRGNSTSRLYVFGTGTKLTVLG
B8: GMBC610 (scFv)
scFv: QVTLKESGAEVKKPGASVKVSCKTSGFTFGAYYIHWVRQVPGQGLEWMGWIDPNNGGTNYAQKFQGRVTMTRDMSTTTTYMEVSGLHSDDTAVYYCARARVATILEYWGRGTLVTVSSGGGGSGGGGSGGGGSPELTQDPAVSVALGQTVRITCQGDSLRSYYASWYQQKPGQAPVLVIYGKNNRPSGIPDRFSGSSSGNTASLTITGAQAEDEADYYCNSRDSSGNHVVFGGGTKLTVLG
B9: GMCC106 (scFv)
scFv: QVQLQESGPGLVKPSGTLSLTCAVSVGSINESNWWSWVRQSPGKGLEWIGEIYPTGTTNYNPSLESRVTISVDKSRNLFSLKLKSVTAADSAMYFCARDRWAGGFDLWGRGTMVTVSSGGGGSGGGGSGGGGSAQSVLTQPPSASGTPGQRVTISCSGSSSNIGSNSVYWYQQLPGTAPKLLIYRNNQRPSGVPDRFSASKSGTSASLAISGLRSEDEADYYCAAWDDSLSGLVFGGGTKLTVLG
B10: GMBC608 (scFv)
scFv: EVQLVQSGGGLVQPGRSLRLSCAASGFTFSDSYMTWIRQAPGEGLEFVSYISSGSSTTYYTDSVKGRFTISRDNSKNTLYLQMNSLRPEDTAVYYCARRSISSDYYSYYLDVWGKGTLVTVSSGGGGSGGGGSGGGGSSELTQDPAVSVALGQTVRITCQGDSLRSYYASWYQQKPGQAPVLVIYGKNNRPSGIPDRFSGSSSGNTASLTITGAQAEDEADYYCNSRDSSGNHVVFGGGTKLTVLG
B11: GMCC110 (scFv)
scFv: QVQLQESGPGLVKPSQTLSLTCTVSGASISSGGYRWIWIRQHPGQGLEWIGDIHYSGSTQYNPSLKSRVALTLDRSKNQFSLQLSSVTAADTAVYYCARDPRGHTYGYGYYFDYWGKGTLVTVSSGGGGSGGGGSGGGGSALSSELTQDPDVSVALGQTVTITCQGDRLRRYYASWYQQKPGQAPVLVIFRKNNRPSGIPDRFSGSSSGDTASLTITGAQAEDEADYYCNSRDTSGTLSFGGGTQLTVLS
B12: GMBC696 (scFv)
scFv: EVQLVQSRAEVKKPGASVKVSCKTSGYTFNGYYIHWVRQAPGQGLEWMGWIDPINSVTNYAQNFQGRVTMTRDTSINTAYMELSRLTSDDTAVYYCARARVSTILQYWGQGTLVTVSSGGGGSGGGGSGGGGSSELTQDPAVSVALGQTVRITCQGDSLRSYYASWYQQKPGQAPVLVIYGKNNRPSGIPDRFSGSSSGNTASLTITGAQAEDEADYYCNSRDSSGNHVVFGGGTKLTVLG
B13: GMBC687 (scFv)
scFv: QVQLVQSGAEVKKPGSSVKVSCKAPGDTFSNYIFNWVRQAPGQGLEWMGGIIPKFGTVNDAHKFQDRVTIAADESTNTASMELSSLTSEDTAVYYCACEPIPKDYGDVNGLEIWGKGTMVTVSSGGGGSGGGGSGGGGSDIQMTQSPSTLSASIGDRVTITCRASEGIYHWLAWYQQKPGKAPKLLIYKASSLASGAPSRFSGSGSGTDFTLTISSLQPDDFATYYCQQYSNYPLTFGGGTKLEIKR
B14: GMBC691 (scFv)
scFv: EVQLVQSGAEVKKPGASMKVSCKTSGDTFNGFYVHWVRQAPGQGLEWMGRINPNGGGTNYAQKFQGRVTMTRDTSMNTAYMELRSLRSDDTAVYYCARDLFYDFWSDYYRNDQYYYMDVWGRGTLVTVSSGGGGSGGGGSGGGGSSELTQDPAVSVALGQTVRITCQGDSLRSYYASWYQQKPGQAPVLVIYGKNNRPSGIPDRFSGSSSGNTASLTITGAQAEDEADYYCNSRDSSGNHVVFGGGTKLTVLG

Molecular target: T1, flag-tagged soluble TL3 (amino acids …)
Test: phage ELISA on immobilized flag-tagged soluble TL3
Outline: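 Phage displaying scFvs selected against flag-tagged GMAD were screened by ELISA against immobilized flag-tagged soluble TL3 (residues 105-251) as a heterologous flag-tagged counter-target, to check that binding is GMAD-specific.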

binding result | Binder
no binding | B1
no binding | B2
no binding | B3
no binding | B4
no binding | B5
no binding | B6
no binding | B7
no binding | B8
no binding | B9
no binding | B10
no binding | B11
no binding | B12
no binding | B13
no binding | B14
